Literature values, collected in patent publication US20080213253A1, “COMBINATION THERAPY FOR THE TREATMENT OF CANCER” (DYAX CORP., priority 2007, published 2008).

Tests used:
Tie1 = Tie1 (Homo sapiens, UniProt P35590); conditions: statement in words, no data shown
[1] = biological target: Tie complex (Tie1 and Tie2) (Homo sapiens, UniProt P35590); conditions: statement in words, no data shown
Chain of Tie complex (Tie1 and Tie2) (P35590 22-1138, one chain of several): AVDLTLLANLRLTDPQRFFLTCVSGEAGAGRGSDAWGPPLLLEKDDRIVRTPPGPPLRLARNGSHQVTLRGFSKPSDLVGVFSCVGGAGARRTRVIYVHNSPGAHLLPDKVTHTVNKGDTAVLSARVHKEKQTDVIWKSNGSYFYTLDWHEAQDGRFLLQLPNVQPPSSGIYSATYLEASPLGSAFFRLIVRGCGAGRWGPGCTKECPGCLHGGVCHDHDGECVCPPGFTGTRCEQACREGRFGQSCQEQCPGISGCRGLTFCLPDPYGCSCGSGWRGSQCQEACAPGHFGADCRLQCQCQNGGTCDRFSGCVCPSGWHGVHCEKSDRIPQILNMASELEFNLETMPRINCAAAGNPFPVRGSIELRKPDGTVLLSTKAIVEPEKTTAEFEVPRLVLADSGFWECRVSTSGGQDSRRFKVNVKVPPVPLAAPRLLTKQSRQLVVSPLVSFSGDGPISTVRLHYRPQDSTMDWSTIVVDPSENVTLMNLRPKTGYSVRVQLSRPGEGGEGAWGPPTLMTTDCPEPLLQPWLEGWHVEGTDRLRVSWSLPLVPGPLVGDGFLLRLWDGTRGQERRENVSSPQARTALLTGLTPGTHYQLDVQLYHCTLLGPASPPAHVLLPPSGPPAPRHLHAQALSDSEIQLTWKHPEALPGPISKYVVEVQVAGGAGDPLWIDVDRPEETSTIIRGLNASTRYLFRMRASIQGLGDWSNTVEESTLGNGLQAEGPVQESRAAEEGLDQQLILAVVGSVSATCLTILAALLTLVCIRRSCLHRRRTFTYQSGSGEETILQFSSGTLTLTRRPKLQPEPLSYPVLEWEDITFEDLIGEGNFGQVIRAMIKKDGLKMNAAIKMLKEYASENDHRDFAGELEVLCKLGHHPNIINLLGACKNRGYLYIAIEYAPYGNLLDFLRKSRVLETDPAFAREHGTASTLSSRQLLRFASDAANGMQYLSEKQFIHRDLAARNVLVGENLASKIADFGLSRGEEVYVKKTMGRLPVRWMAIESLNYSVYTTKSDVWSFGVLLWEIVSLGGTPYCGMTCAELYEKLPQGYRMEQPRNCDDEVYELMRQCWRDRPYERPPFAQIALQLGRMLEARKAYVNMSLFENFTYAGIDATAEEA

Chain of Tie1 (P35590 22-1138): as the sequence (P35590 22-1138, one chain of several) above

B1: M0044-B08: Tie1 ectodomain-binding antibody; variable domains SEQ ID NO:1 and 3 (antibody, V domains shown)
VL: QDIQMTQSPSFLSASVGDRVTISCRASQYISIYLNWYQQRPGEAPKLLINAASSLQSGDPSRFSGSGSGTDFTLTINSLQPDDFATYYCQQYKSYPLTFGEGTKVEIK
VH: EVQLLESGGGLVQPGGSLRLSCAASGFTFSAYGMGWVRQAPGKGLEWVSVISPSGGQTSYADSVKGRFTISRDNSKNTLYLQMNSLRAEDTALYYCAGGDRYGPLHYWGQGTLVTVSS
- down modulation of Tie1 from the cell surface (Tie1): down modulation of Tie1 from the cell surface
- Tie complex formation [1]: induce Tie complex formation
